This is an account of results in patent publication US20220411536A1 (NUMAB THERAPEUTICS, published 2022).

Assay [1] addresses T1, human PD-L1 expressed on cells (CHO-PD-L1, HCC1954, HCC827) (human, UniProt Q9NZQ7 19-290).
T1 construct: whole, on cells; also called hPD-L1; PD-L1 expressing cells
The assay can be described thus: flow cytometry competition in presence of human SA: binding of biotinylated PD-1 to HCC1954 cells (Her2+++, PD-L1); blocked ligand PD-1 [HCC1954]. A general note: Flow cytometry measures light scatter and fluorescence of single cells or particles in a stream.

Assay [2] has as its target T1, human PD-L1 expressed on cells …. Kind of assay: flow cytometry with human SA, inhibition of PD-1 binding to HCC1954 cells.
The target in assay [3] is CD137 on transgenic NF-kB Jurkat reporter cells (Homo sapiens (Human), UniProt Q07011 24-255). Kind of assay: cell-based or functional assay.
The target in assay [4] is T2, human HER2 expressed on cells (SK-OV3, MCF-7, HCC1954, HCC827) (human, UniProt P04626 23-1255).
T2 construct: whole, on cells
Kind of assay: flow cytometry, SK-OV3 cells, no competitor.

Assay [5] concerns the target T2, human HER2 expressed on cells (SK-OV3, …). Kind of assay: flow cytometry, MCF-7 cells.
For assay [6] the target is unchanged. Kind of assay: flow cytometry, IFNy-stimulated HCC827 cells.
In assay [7] the target is T3, CD3e on Jurkat PD-1 NFAT reporter T cells or on T cells of human PBMCs (human, UniProt P07766 23-207). Kind of assay: cell-based or functional assay.
The target of assay [8] is T2, human HER2 expressed on cells (SK-OV3, …). The assay can be described thus: flow cytometry, SK-OV3 cells.
Assay [9] addresses T4, recombinant human Her2 ECD (SinoBiological, cat. 10004-HCCH) (human, UniProt P04626 23-652).
T4 construct: extracellular domain; bought protein
The assay can be described thus: SPR, human Her-2. (Surface plasmon resonance follows binding to a sensor surface in real time, without labels.)

The target in assay [10] is T2, human HER2 expressed on cells (SK-OV3, …). The assay can be described thus: flow cytometry, IFNy-stimulated HCC1954 cells.
Assay [11] deals with unidentified antigen on CHO PD-L1 cells bound by pertuzumab (the filing speculates hamster HER2). Kind of assay: flow cytometry, CHO PD-L1 cells (residual binding).
The target of assay [12] is T2, human HER2 expressed on cells (SK-OV3, …). Kind of assay: flow cytometry, SK-OV3 cells, competitor 50 nM trastuzumab.
Assay [13] deals with T5, recombinant human CD3E ECD (SinoBiological, cat. 10977-H08H) (human, UniProt P07766 23-126).
T5 construct: extracellular domain; bought protein; also called CD3s
Kind of assay: SPR, immobilised CD3e ECD, two-state model.

Assay [14] deals with T4, recombinant human Her2 ECD …. The assay can be described thus: SPR, immobilised Her2 ECD.
The target in a further assay is T6, human serum albumin (human, UniProt P02768 25-609).
T6 construct: also called HSA; human SA
Kind of assay: SPR, immobilised HSA, pH 5.5.

In assay [15] the target is T5, recombinant human CD3E ECD …. The assay can be described thus: SPR, immobilised CD3e ECD, two-state model (kd1); kd1, first step of the two-state fit.
In assay [16] the target is T7, Fc-tagged human PD-L1 extracellular domain (SinoBiological, cat. 10084-H02H) (human, UniProt Q9NZQ7 19-238).
T7 construct: extracellular domain; also called hPD-L1; not shown: Fc tag of the bought protein
The assay can be described thus: SPR, captured Fc-PD-L1 ECD.

Assay [17] addresses T3, CD3e on Jurkat PD-1 NFAT reporter T …. The assay can be described thus: cell-based or functional assay. This is another data set of the same source.
Assay [18] has the same target. The assay can be described thus: cell-based or functional assay. The source holds these as a separate data set.
For assay [19], the target named is T8, recombinant human IL-23R (custom-made by Trenzyme) (human, UniProt Q5VWK5 24-355).
T8 sequence (looked up): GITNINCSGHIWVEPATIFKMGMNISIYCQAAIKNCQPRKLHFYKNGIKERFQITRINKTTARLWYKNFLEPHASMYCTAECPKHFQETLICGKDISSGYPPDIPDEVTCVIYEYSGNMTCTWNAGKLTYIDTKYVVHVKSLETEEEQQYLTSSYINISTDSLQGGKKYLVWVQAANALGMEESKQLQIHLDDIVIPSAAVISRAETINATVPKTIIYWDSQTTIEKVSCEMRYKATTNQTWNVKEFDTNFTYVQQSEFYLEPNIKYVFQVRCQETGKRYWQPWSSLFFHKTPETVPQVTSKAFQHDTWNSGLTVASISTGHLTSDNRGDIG
Kind of assay: SPR, immobilised IL-23R.

Assay [20] deals with T5, recombinant human CD3E ECD …. The assay can be described thus: SPR, immobilised CD3e ECD, two-state model; overall KD of the two-state fit.
The target is the same in assay [21]. Kind of assay: SPR, immobilised CD3e ECD, two-state model (ka1); ka1, first step of the two-state fit.
The next assay deals with T9, mouse serum albumin (mouse, UniProt P07724 25-608).
T9 construct: also called MSA; mouse SA
The assay can be described thus: SPR, immobilised MSA, pH 5.5.

T9 sequence (P07724 25-608 limits assumed): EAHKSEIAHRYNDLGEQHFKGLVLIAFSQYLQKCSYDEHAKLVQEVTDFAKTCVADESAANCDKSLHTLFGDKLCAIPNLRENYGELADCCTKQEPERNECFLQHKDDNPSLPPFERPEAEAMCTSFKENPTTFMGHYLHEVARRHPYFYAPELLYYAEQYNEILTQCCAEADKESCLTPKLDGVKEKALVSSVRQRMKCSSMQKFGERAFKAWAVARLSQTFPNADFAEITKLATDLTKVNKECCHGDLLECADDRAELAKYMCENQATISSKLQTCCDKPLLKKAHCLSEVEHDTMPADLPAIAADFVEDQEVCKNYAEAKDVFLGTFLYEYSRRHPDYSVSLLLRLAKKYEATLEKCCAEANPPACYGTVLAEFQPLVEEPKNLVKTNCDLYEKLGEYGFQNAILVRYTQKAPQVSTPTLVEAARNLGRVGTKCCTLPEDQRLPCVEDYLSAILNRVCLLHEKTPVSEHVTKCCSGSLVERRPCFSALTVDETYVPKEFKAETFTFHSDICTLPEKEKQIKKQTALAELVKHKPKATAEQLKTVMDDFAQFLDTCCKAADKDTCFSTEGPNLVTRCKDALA
T5 sequence (P07766 23-126): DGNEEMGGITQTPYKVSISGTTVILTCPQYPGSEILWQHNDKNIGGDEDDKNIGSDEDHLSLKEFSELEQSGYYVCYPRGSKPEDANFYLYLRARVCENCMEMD

B1: PRO1993 (multispecific antibody)
chain 1: DIQMTQSPSSLSASVGDRVTITCKASQDVSIGVAWYQQKPGKAPKLLIYSASYRYTGVPSRFSGSGSGTDFTLTISSLQPEDFATYYCQQYYIYPYTFGCGTKVTVLGGGGGSGGGGSGGGGSGGGGSEVQLVESGGGLVQPGGSLRLSCAASGFTFTDYTMDWVRQAPGKCLEWVADVNPNSGGSIYNQRFKGRFTLSVDRSKNTLYLQMNSLRAEDTAVYYCARNLGPSFYFDYWGQGTLVTVSSGGGGSGGGGSDVVMTQSPSSLSASVGDRVTITCQASQIISSRSAWYQQKPGQPPKLLIYQASKLASGVPSRFSGSGSGTDFTLTISSLQPEDFATYYCQCTYIDSNFGAFGTGTKLTVLGGGSGGSDIQMTQSPSSLSASVGDRVTITCQASQSISNRLAWYQQKPGKAPKLLIYSASTLASGVPSRFSGSGSGTDFTLTISSLQPEDFATYYCQSTYYGNDGNAFGCGTKVTVLG
chain 2: DIQMTQSPSSLSASVGDRVTITCQASQSINDYLAWYQQKPGKAPKLLIYKASTLASGVPSRFSGSGSGTDFTLTISSLQPEDFATYYCQAAYIITDIDNVFGTGTKVTVLGGGGGSGGGGSGGGGSGGGGSQVQLQESGPGLVKPSETLSLTCKVSGFSFSSGYDMCWIRQPPGKGLEWIGCVVAGSVDITYYASWAKGRVTISVDSSKNQFSLKLSSVTAADTAVYYCARKDAYSDAFNLWGQGTLVTVSSGGGGSGGGGSEVQLVESGGGLVQPGGSLRLSCAASGFSFSANYYPCWVRQAPGKCLEWIGCIYGGSSDITYDANWTKGRFTISRDNSKNTVYLQMNSLRAEDTAVYYCARSAWYSGWGGDLWGQGTLVTVSSGGGSGGGSEVQLVESGGGLVQPGGSLRLSCAASGFSFSSSYWICWVRQAPGKGLEWVGCVFTGDGTTYYASWAKGRFTISRDNSKNTVYLQMNSLRAEDTATYFCARPVSVYYYGMDLWGQGTLVTVSS
In the case of B1, the “IC50 (read off the curve)” value in assay [1] is roughly 2 nM. Further, the IC50 in assay [2] was 0.167 µg/mL. Further, in assay [3], the “EC50, NFkB reporter gene assay, HCC827 cells” value was determined as 0.287 nM and the “EC50, NFkB reporter gene assay, HCC1954 cells” value was 0.168 nM.

B2: PRO1895 (multispecific antibody)
chain 1: DIQMTQSPSSLSASVGDRVTITCKASQDVSIGVAWYQQKPGKAPKLLIYSASYRYTGVPSRFSGSGSGTDFTLTISSLQPEDFATYYCQQYYIYPYTFGCGTKVTVLGGGGGSGGGGSGGGGSGGGGSEVQLVESGGGLVQPGGSLRLSCAASGFTFTDYTMDWVRQAPGKCLEWVADVNPNSGGSIYNQRFKGRFTLSVDRSKNTLYLQMNSLRAEDTAVYYCARNLGPSFYFDYWGQGTLVTVSSGGGGSGGGGSDVVMTQSPSSLSASVGDRVTITCQASQIISSRSAWYQQKPGQPPKLLIYQASKLASGVPSRFSGSGSGTDFTLTISSLQPEDFATYYCQCTYIDSNFGAFGCGTKLTVLGGGSGGSDIQMTQSPSSLSASVGDRVTITCQSSQSVFSNNYLAWFQQKPGQSPKRLIYSASTLASGVPSRFSGSGSGTDFTLTISSLQPEDFATYYCLGSYACSSADCYVFGTGTKVTVLG
chain 2: DIQMTQSPSSLSASVGDRVTITCQASQSINDYLAWYQQKPGKAPKLLIYKASTLASGVPSRFSGSGSGTDFTLTISSLQPEDFATYYCQAAYIITDIDNVFGTGTKVTVLGGGGGSGGGGSGGGGSGGGGSQVQLQESGPGLVKPSETLSLTCKVSGFSFSSGYDMCWIRQPPGKGLEWIGCVVAGSVDITYYASWAKGRVTISVDSSKNQFSLKLSSVTAADTAVYYCARKDAYSDAFNLWGQGTLVTVSSGGGGSGGGGSEVQLVESGGGLVQPGGSLRLSCAASGFSLSSYDMSWVRQAPGKGLAWIGASYASGPTYYASWAKGRFTISRDNSKNTVYLQMNSLRAEDTATYFCARGGWTGTSHSNIWGQGTLVTVSSGGGSGGGSEVQLVESGGGLVQPGGSLRLSCAASGFSFSSSYWICWVRQAPGKCLEWVGCVFTGDGTTYYASWAKGRFTISRDNSKNTVYLQMNSLRAEDTATYFCARPVSVYYYGMDLWGQGTLVTVSS
notes: also called pertuzumab-based MATCH4
With B2, the EC50 in assay [4] was found to be 2.02 nM; in [5], 5.35 nM; in [6], 1.34 nM; in [8], 1.87 nM; in assay [10] it was 17.3 nM; in assay [11], 97.3 nM. The molecule also registered an EC50 in assay [12] of 4.55 nM. Moreover, the “T cell activation IC50, PBMC with HCC827 cells” value in assay [7] is 0.153 nM. For the same molecule, the “T cell activation IC50, PBMC with HCC1954 cells” value in assay [7] is 0.027 nM. Also, the Kd in assay [9] worked out at 0.414 nM. Also, the koff in [9] stood at 8.11e-05 s⁻¹. Besides, the kon in assay [9] worked out at 196000 M⁻¹ s⁻¹.

B3: PRO1557 (multispecific antibody)
chain 1: not shown
chain 2: DIQMTQSPSSLSASVGDRVTITCQASENIYSFLAWYQQKPGKAPKLLIYSASKLAAGVPSRFSGSGSGTDFTLTISSLQPEDFATYYCQQTNRYSNPDIYNVFGTGTKVTVLGGGGGSGGGGSGGGGSGGGGSEVQLVESGGGLVQPGGSLRLSCAASGIDFNSNYYMCWVRQAPGKGLEWIGCIYVGSHVNTYYANWAKGRFTISRDNSKNTVYLQMNSLRAEDTAVYYCATSGSSVLYFKFWGQGTLVTVSSGGGGSGGGGSEVQLVESGGGLVQPGGSLRLSCAASGFSLSSYDMSWVRQAPGKGLAWIGASYASGPTYYASWAKGRFTISRDNSKNTVYLQMNSLRAEDTATYFCARGGWTGTSHSNIWGQGTLVTVSSGGGSGGGSEVQLVESGGGLVQPGGSLRLSCAASGFSFSSSYWICWVRQAPGKCLEWVGCVFTGDGTTYYASWAKGRFTISRDNSKNTVYLQMNSLRAEDTATYFCARPVSVYYYGMDLWGQGTLVTVSS
For B3, in assay [13], the KD1 is 18.7 nM and the kd2 worked out at 0.00356 s⁻¹. In assay [14], the Kd was 0.318 nM, the koff turned out to be 6.35e-05 s⁻¹ and the on-rate (kon) stood at 200000 M⁻¹ s⁻¹. In addition, in the assay with human serum albumin, the affinity, expressed as Kd, was 0.498 nM; the koff worked out at 0.00012 s⁻¹; the kon is 240000 M⁻¹ s⁻¹. In addition, the koff in [15] was determined as 0.00529 s⁻¹. The binding result in [16] is recorded as “no binding”. In addition, in assay [17], the “IC50, NFAT reporter, HCC1954 cells” value was 0.391 nM; the “IC50, NFAT reporter, HCC1954 cells, + PRO1434” value amounted to 0.671 nM; the “IC50, NFAT reporter, HCC1954 cells, + nivolumab” value came to 0.319 nM; the “rel. max. activation vs PRO1497, NFAT reporter, HCC1954 cells” value came out at 82%. Besides, in assay [18], the “target cell killing IC50, 16 h, HCC1954 cells” value came to 0.00279 nM and the “target cell killing IC50, 16 h, MCF-7 cells” value came to 0.0181 nM. Also, in [19], the Kd came to 0.931 nM, the koff was 0.000514 s⁻¹ and the kon turned out to be 552000 M⁻¹ s⁻¹. Further, the Kd in assay [20] was 8.43 nM. In addition, in [21], the on-rate constant (kon) came out at 283000 M⁻¹ s⁻¹. Also, in the assay with mouse serum albumin, binding was put at a Kd of 11.2 nM, the koff is 0.00107 s⁻¹ and the kon is 95600 M⁻¹ s⁻¹.

As usually defined, the IC50 is the concentration that inhibits the measured activity by half. The low end stands for greater potency in that assay, the high end for weaker potency in that assay. The EC50 is the midpoint of the concentration-response curve. A higher EC50 goes with weaker potency. One may read the Kd as the concentration at which binding is half-saturated. As usually defined, the koff is the rate constant with which the complex falls apart. By kon is commonly meant the second-order rate constant of association.
